Laboratory results reported in patent publication US20220387586A1 (Hoffmann-La Roche, published 2022).

How the values were obtained:
[1] = biological target: T1, LAG3 on cells (recombinant CHO cells expressing Lag3) (human, UniProt P18627 29-525); assay: cell-based or functional assay
T1 sequence: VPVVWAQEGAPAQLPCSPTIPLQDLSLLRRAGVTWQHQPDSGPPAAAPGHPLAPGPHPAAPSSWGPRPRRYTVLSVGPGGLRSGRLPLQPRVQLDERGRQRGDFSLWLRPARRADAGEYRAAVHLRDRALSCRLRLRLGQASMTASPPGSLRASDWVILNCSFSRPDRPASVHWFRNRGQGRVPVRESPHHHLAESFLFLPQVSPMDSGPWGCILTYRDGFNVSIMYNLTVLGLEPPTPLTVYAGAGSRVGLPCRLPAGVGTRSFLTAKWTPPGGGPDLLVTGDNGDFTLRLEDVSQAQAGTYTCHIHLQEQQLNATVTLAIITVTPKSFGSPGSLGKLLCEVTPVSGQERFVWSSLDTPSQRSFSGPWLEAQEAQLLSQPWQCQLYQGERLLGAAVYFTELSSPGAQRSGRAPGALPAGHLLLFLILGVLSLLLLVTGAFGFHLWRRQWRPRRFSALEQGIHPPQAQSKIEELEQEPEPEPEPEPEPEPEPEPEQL

[2] = biological target: T1, LAG3 on cells (recombinant CHO cells …); assay: cell ELISA on recombinant CHO cells expressing Lag3
Method: After washing (1×90 μl in PBST) cells were fixed by addition of 30 μl/well glutaraldehyde to a final concentration of 0.05% (Sigma Cat.No: G5882), 10 min at room temperature. After washing (3×90 μl/well with PBST-buffer) 25 μl/well goat anti-Human Ig κ chain antibody-HRP conjugate (Milipore, AP502P) was added in a 1:1000 dilution and incubated at RT for 1 h. After washing (3×90 μl/well with PBST-buffer) 25 μl/well TMB substrate (Roche, 11835033001) was added and incubated for 6-10 min. Measurement took place on a Tecan Safire 2 instrument at 370/492 nm.

[3] = biological target: T2, cynomolgus LAG3 on cells (cynomolgus); assay: flow cytometry on HEK293F cells transfected with cyno-LAG-3, antibody 10 µg/ml
T2 construct: whole, on cells; also called cyno-LAG-3; cynoLAG3
Method: 1.5×10⁵ cells/well were seeded into 96-well plates. […] HEK cells were incubated with indicated antibodies for 45 min on ice, washed twice with 200 μl ice-cold PBS buffer containing 2% FBS, before secondary antibody (APC-labelled goat anti-human IgG-kappa, Invitrogen, cat.no. #MH10515) was added (1:50 diluted in FACS-Puffer/well) and further incubated for 30 min on ice. Cells were again washed twice with 200 μl ice-cold PBS/2% FBS buffer before samples were finally resuspended in 150 μl FACS buffer and binding was measured on FACS CANTO-II HTS Module.

[4] = biological target: T2, cynomolgus LAG3 on cells; assay: flow cytometry on activated cynomolgus PBMC, 10 µg/ml (only 2nd Ab (hu): 7.62)
Method: Thus, cynomolgus peripheral blood mononuclear cells (PBMC) were prepared from fresh cynomolgus blood and were then activated by CD3/CD28 pre-treatment (1 μg/ml) for 2-3 days. […] After staining, cells were washed two times with PBS/2% FCS and analyzed on a FACS Fortessa (BD).

[5] = biological target: T3, human Fc tagged human Lag3 extra cellular domain (human, UniProt P18627 29-450, biotinylated in the epitope binning, the SA CAP SPR and the FACS competition assay); assay: FACS, inhibition of biotinylated Lag3:Fc binding to MHC-II on A375 cells (competitor MHC-II); antibody 10 µg/ml
T3 construct: In-house fusion; also called huLag3-Fc; biotinylated, huFc-tagged huLag3; not shown: human Fc tag
T3 sequence: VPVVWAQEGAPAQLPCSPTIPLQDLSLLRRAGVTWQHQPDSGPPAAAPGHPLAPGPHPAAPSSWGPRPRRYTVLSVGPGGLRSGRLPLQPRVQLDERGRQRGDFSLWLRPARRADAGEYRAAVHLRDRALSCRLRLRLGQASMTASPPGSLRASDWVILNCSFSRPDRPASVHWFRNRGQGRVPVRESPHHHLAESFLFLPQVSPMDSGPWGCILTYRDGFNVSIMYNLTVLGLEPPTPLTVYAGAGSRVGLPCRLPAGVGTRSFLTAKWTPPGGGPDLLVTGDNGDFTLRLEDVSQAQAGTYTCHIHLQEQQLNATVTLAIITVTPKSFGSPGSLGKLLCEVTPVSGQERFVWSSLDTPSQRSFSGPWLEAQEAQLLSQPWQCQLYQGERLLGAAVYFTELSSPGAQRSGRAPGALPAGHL
Method: This analysis was studied in a FACS competition experiment: A375 cells (ATCC, #CRL-1619) were cultured for 2-3 passages in EM Eagle's medium supplemented with EBSS (PAN, cat.no. #P04-00509), 10% FBS, 2 mM L-Glutamin, 1×NEAA and 1× Sodium Pyruvate. All antibodies, were diluted in FACS buffer to a final concentration of 20 μg/ml in 25 μl (in 96well U-bottom plates). […] A375 cells were washed with PBS and adjusted to 3×10⁶ cells/ml in PBS. 100 μl were seeded per well in a 96well V-bottom plate. Plates were centrifuged and supernatant was removed. […] After this, cells were washed with 200 μl FACS buffer. […] After staining, cells were again washed and then transferred in 150 μl FACS buffer (PBS/2% FBS) to a U-bottom plate and analyzed on a FACS Canto-II using an HTS module.
All antibodies were used at 10 μg/ml final concentration.

[6] = biological target: T4, biotinylated-Lag3 (UniProt P18627 23-450, limits assumed, biotinylated); assay: ELISA, inhibition of biotinylated-Lag3 binding to MHC-II on A375 cells (competitor MHC-II); first of two numbers; first of two series in the cell
T4 construct: Probably a human LAG3 ECD construct; also called Lag3 (MHCII/ELISA)
T4 sequence (looked up): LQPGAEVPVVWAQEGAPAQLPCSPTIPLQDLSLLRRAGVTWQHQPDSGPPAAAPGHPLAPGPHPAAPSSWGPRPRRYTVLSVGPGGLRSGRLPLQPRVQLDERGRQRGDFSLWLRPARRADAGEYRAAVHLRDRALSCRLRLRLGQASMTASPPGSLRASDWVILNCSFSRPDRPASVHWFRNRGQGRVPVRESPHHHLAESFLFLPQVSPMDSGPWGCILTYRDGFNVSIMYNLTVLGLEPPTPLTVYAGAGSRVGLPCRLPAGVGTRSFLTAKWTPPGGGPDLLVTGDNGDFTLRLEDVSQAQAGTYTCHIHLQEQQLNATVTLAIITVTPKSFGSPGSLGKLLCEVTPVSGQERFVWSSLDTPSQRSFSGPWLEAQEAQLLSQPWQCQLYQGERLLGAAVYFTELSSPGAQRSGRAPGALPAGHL

[7] = biological target: T4, biotinylated-Lag3; assay: ELISA, inhibition of biotinylated-Lag3 binding to MHC-II on A375 cells (competitor MHC-II); second of two numbers; second of two series in the cell (the series of '/0.4' and '/1.0')

EC50 [nM] in Jurkat LAG3 + SED + Raji (NFAT luciferase), 2nd assay [1]: 8.6 nM
CHO-cell ELISA inflexion point [2]: 75 ng/mL
% pos. [3]: 41.2%
GeoMean [3]: 3060
% positive cyno cells (PBLs) after CD3/CD28 activation [4]: 22.1%
% Inhibition [5]: 70%
IC50 [6]: 0.8 nM
IC50 [7]: 0.6 nM
B1: Reference LAG3 antibody MDX25F7 (antibody, V domains shown)
VH: QVQLQQWGAGLLKPSETLSLTCAVYGGSFSDYYWNWIRQPPGKGLEWIGEINHNGNTNSNPSLKSRVTLSLDTSKNQFSLKLRSVTAADTAVYYCAFGYSDYEYNWFDPWGQGTLVTVSS
VL: EIVLTQSPATLSLSPGERATLSCRASQSISSYLAWYQQKPGQAPRLLIYDASNRATGIPARFSGSGSGTDFTLTISSLEPEDFAVYYCQQRSNWPLTFGQGTNLEIK
notes: also called MDX-25F7 (25F7); Medarex 25F7
